Laboratory results reported in patent publication US20210292393A1 (published 2021).

Columns and labels:
[1] = biological target: SARS-CoV-2 full length spike protein, D614G mutant (SARS-CoV-2, UniProt P0DTC2 14-1273)
[2] = biological target: SARS-CoV-2 full length spike protein, V367F mutant (SARS-CoV-2, UniProt P0DTC2 14-1273)
[3] = biological target: T1, SARS-CoV-2 full length spike protein, V483A mutant, expressed on CHO cells (SARS-CoV-2, UniProt P0DTC2 14-1273); assay: flow cytometry on CHO cells expressing spike V483A
T1 construct: also called SARS-CoV-2 V483A mutant

[4] = biological target: T2, SARS-CoV-2 full length spike protein, V367F mutant, expressed on CHO cells (SARS-CoV-2, UniProt P0DTC2 14-1273); assay: flow cytometry on CHO cells expressing spike V367F
T2 construct: also called SARS-CoV-2 V367F mutant

[5] = biological target: SARS-CoV-2 full length spike protein, D614G mutant, expressed on CHO cells (SARS-CoV-2, UniProt P0DTC2 14-1273); assay: flow cytometry on CHO cells expressing spike D614G
[6] = biological target: T1, SARS-CoV-2 full length spike protein, …
[7] = biological target: T3, SARS-CoV-2 full length spike protein, V483A mutant (SARS-CoV-2, UniProt P0DTC2 14-1273); assay: flow cytometry, CHO cells expressing full-length spike V483A
T3 construct: also called SARS-CoV-2 V483A mutant

[8] = biological target: T4, SARS-CoV-2 full length spike protein, V367F mutant (SARS-CoV-2, UniProt P0DTC2 14-1273); assay: flow cytometry, CHO cells expressing full-length spike V367F
T4 construct: also called SARS-CoV-2 V367F mutant

[9] = biological target: T5, SARS-CoV-2 full length spike protein, V483A mutant (SARS-CoV-2, UniProt P0DTC2 14-1273); assay: flow cytometry, CHO cells expressing full-length spike V483A; remark: listed apart in the source
T5 construct: also called SARS-CoV-2 V483A mutant

[10] = biological target: T5, SARS-CoV-2 full length spike protein, …
[11] = biological target: SARS-CoV-2 full length spike protein, D614G mutant (SARS-CoV-2, UniProt P0DTC2 14-1273); assay: flow cytometry, CHO cells expressing full-length spike D614G
[12] = biological target: T6, SARS-CoV-2 full length spike protein, V367F mutant (SARS-CoV-2, UniProt P0DTC2 14-1273); assay: flow cytometry, CHO cells expressing full-length spike V367F; remark: listed apart in the source
T6 construct: also called SARS-CoV-2 V367F mutant

[13] = biological target: T3, SARS-CoV-2 full length spike protein, …; remark: listed apart in the source
[14] = biological target: T7, SARS-CoV-2 full length spike protein, D614G mutant (SARS-CoV-2, UniProt P0DTC2 14-1273); assay: flow cytometry, CHO cells expressing full-length spike D614G (printed D641G)
T7 construct: also called SARS-CoV-2 D641G mutant

B1: antibody 585 (antibody, V domains shown)
VH: QVQLVESGGGVVQPGRSLRLSCAASGFTFATYAMHWVRQAPGKGLEWVALISHDGSNKHYADSVKGRFTISRDNSKKTLYLQMNSLRAEGTAIYYCARESLEAAAPPFDYWGQGTLVTVSS
VL: SYELTQPPSVSVSPGQTATIICSGDKLGEKYASWYQQKPGQSPALVIYQDRKRPSGIPERFSGSNSGNTATLTISGTQAMDEADYYCQAWDSSNSVVFGGGTKLTVP
Question: B1 was tested. Which “median fluorescence intensity, fold over isotype control” value (“median fluorescence intensity, fold” below) [1] did it give?
Answer: Its value is 7.49 fold over isotype.

Question: What about the “median fluorescence intensity, fold” value [2] of the same binder?
Answer: The value was 33 fold over isotype.

B2: antibody 377 (antibody, V domains shown)
VH: EVQLVESGGGLVKPGGSLRLSCATSGFTFRTYSMNWVRQAPGKGLEWVSSITTSRNYIYYADSVRGRFTISGDNANNSLYLQMNSLRAEDTAVYYCARVRFVRDTRKPYYFDFWGQGTLVTVSS
VL: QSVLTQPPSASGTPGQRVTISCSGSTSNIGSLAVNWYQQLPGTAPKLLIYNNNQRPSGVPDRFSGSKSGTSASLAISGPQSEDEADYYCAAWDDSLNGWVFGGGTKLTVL
Question: Does B2 bind [3]?
Answer: Result: no binding

Question: Does B2 bind [4]?
Answer: Result: no binding

Question: Does B2 bind [5]?
Answer: Result: no binding

Question: And the “median fluorescence fold over isotype control” value [6]?
Answer: Its value is 1.09 fold over isotype.

B3: antibody 290 (antibody, V domains shown)
VH: QVHLVQSGAEVKKPGASVKVSCAASGYTFNNYGVSWVRQAPGQGLEWMGWISASNGNTKYAQNLQGRVTMTTDTSTSTAYMELRSLRSDDTAVYYCARDLVGPTAPNYYYGMDVWGQGTAVTVSS
VL: QSVLTQPPSVSGAPGQRVTISCTGSSSSIGAGYDVHWYQQLPGTAPKLLIYANSNRPSGVPDRLSGSKSGTSASLAITGLQAEDEADYYCQSYDSSLSGYVFGTGTKVTVL
Question: Does B3 bind [7]?
Answer: Result: no binding

B4: antibody 450 (antibody, V domains shown)
VH: EVQLVESGGGLVQPGGSLRLSCAASEFTFSSYWMSWVRQAPGKGLEWVANIKQDGSEKYYVDSVKGRFTISRDNAKNSLYLQMNSLRAEDTAVYYCARVGEYSGYDLFFDYWGQGTLVTVSS
VL: NFMLTQPHSVSESPGKTVTISYTGSSGSIASNYVQWYQQRPGSAPTTVIYEDNQRPSGVPDRFSGSIDSSSNSASLTISGLKTEDEADYYCQSYDSSNQGVFGGGTKLTVL
Question: Does B4 bind [8]?
Answer: Result: no binding

Question: Does B4 bind [9]?
Answer: Result: no binding

Question: And the “median fluorescence fold over isotype control” value [10]?
Answer: The value was 1.27 fold over isotype.

Question: Does B4 bind [11]?
Answer: Result: no binding

B5: antibody 432 (antibody, V domains shown)
VH: QVQLQESGPGLVKPSQTLSLTCTVSGGSISSGGYYWNWIRQHPGKGLEWIGYIYDSGSTYYNPSLKSRLTLSIDTSQNQFSLRRTSVTAADTAVYYCARGRQYDYDRTGLQYYFDYWGQGTLVTVSS
VL: EIVLTQSPGTLSLSPGERATLSCRASQSFSSSYLAWYQQKPGQAPRLLIYGASSRATGIPDRFSGSGSGTDFTLTISRLEPEDFAVYYCQQYGTSSLTFGGGTKVEIK
Question: Does B5 bind [8]?
Answer: Result: no binding

Question: Does B5 bind [9]?
Answer: Result: no binding

B6: antibody 296 (antibody, V domains shown)
VH: EVQLVESGGGLVQPGGSLRLSCAGSGFTLSNYWMTWVRQAPGKGLEWVANINQDASRKYYGDSVKGRFSVSRDNAKNSLYLQMNSLTAEDTGFYYCVREELPSTPGSTWGQGTLVTVSS
VL: QSALTQPASVSGSPGQSITISCTGTSSDIGGYNHVSWYQQHPGKAPKLMIYGVSNRPSGVSDRFSGSKSDNTASLTISGLQAEDEADYYCSSPTSRGNKVFGTGTKVTVL
Question: Does B6 bind [12]?
Answer: Result: no binding

Question: And the “median fluorescence intensity, fold” value [13]?
Answer: Its value is 1.27 fold over isotype.

Question: Does B6 bind [14]?
Answer: Result: no binding
